Laboratory results from PMC6254361, “The properties of Msh2–Msh6 ATP binding mutants suggest a signal amplification mechanism in DNA mismatch repair” (The Journal of Biological Chemistry, 2018).
Blank lines part the entries; values can stand above or below the substance they belong to.

Assays:
[1] = test system: Msh2;Msh6 (Saccharomyces cerevisiae;Saccharomyces cerevisiae); assay: SPR; settings: SPR on streptavidin surface; buffer, salt, pH and temperature not given in the material; with or without 0.1-2.5 mM ATP; LacI end block, released by 1 mM IPTG
[2] = test system: Msh2;Msh6(G1142D) (Saccharomyces cerevisiae;Saccharomyces cerevisiae); assay: SPR; settings: 0.1 and 2.5 mM ATP, LacI; printed as no more than 0.86; SPR on streptavidin surface; buffer, salt, pH and temperature not given in the material; with or without 0.1-2.5 mM ATP; LacI end block, released by 1 mM IPTG
[3] = test system: Msh2;Msh6;Mlh1;Pms1 (Saccharomyces cerevisiae;Saccharomyces cerevisiae;Saccharomyces cerevisiae;Saccharomyces cerevisiae); assay: SPR; settings: ATP, LacI; SPR on streptavidin surface; buffer, salt, pH and temperature not given in the material; with or without 0.1-2.5 mM ATP; LacI end block, released by 1 mM IPTG
[4] = test system: Msh2(K694M);Msh6 (Saccharomyces cerevisiae;Saccharomyces cerevisiae); assay: SPR; settings: ATP up to 2.5 mM, LacI; SPR on streptavidin surface; buffer, salt, pH and temperature not given in the material; with or without 0.1-2.5 mM ATP; LacI end block, released by 1 mM IPTG
[5] = test system: Msh2(K694R);Msh6 (Saccharomyces cerevisiae;Saccharomyces cerevisiae); assay: SPR; settings: ATP up to 2.5 mM, LacI; SPR on streptavidin surface; buffer, salt, pH and temperature not given in the material; with or without 0.1-2.5 mM ATP; LacI end block, released by 1 mM IPTG
[6] = test system: Msh2(K694A);Msh6 (Saccharomyces cerevisiae;Saccharomyces cerevisiae); assay: SPR; settings: ATP up to 2.5 mM, LacI; SPR on streptavidin surface; buffer, salt, pH and temperature not given in the material; with or without 0.1-2.5 mM ATP; LacI end block, released by 1 mM IPTG
[7] = biological target: Walker A Lys mutant Msh2–Msh6 complexes (S. cerevisiae); assay: SPR; Biacore T100; 236-bp GT mispair DNA held by biotin-streptavidin, other end blocked by lacO-LacI; 20 nM Msh2–Msh6, 250 μM ATP, 30 nM LacI for 100 s, then the same plus 40 nM Mlh1–Pms1 for 300 s; recruitment read as the increase in RU over steady-state Msh2–Msh6; 25 mM Tris pH 8, 4 mM MgCl2, 110 mM NaCl, 0.01% Igepal, 2 mM DTT, 2% glycerol; 10 °C, 20 μl/min; settings: scale: Mlh1–Pms1 complexes bound per Msh2–Msh6 complex
[8] = biological target: S. cerevisiae Mlh1–Pms1 [S. cerevisiae]; assay: SPR; settings: GT mispair-containing double end-blocked DNA surface; buffer with ATP and LacI; read off a plot

stoichiometry N [7]: 2.06 to 3.75
Substance: S. cerevisiae Mlh1–Pms1 (from UniProt P38920 1-769; P14242 1-873) (complex)

screen value [8]: 3.5
Substance: S. cerevisiae Msh2–Msh6 (WT) mutant Msh2:K694A [S. cerevisiae] / S. cerevisiae Mlh1–Pms1 [S. cerevisiae] chain 3 K694A

screen value [8]: 4.9
Substance: S. cerevisiae Msh2–Msh6 (WT) mutant Msh2:K694M [S. cerevisiae] / S. cerevisiae Mlh1–Pms1 [S. cerevisiae] chain 3 K694M

screen value [8]: 4.3
Substance: S. cerevisiae Msh2–Msh6 (WT) mutant Msh2:K694R [S. cerevisiae] / S. cerevisiae Mlh1–Pms1 [S. cerevisiae] chain 3 K694R

screen value [8]: 3.4
Substance: S. cerevisiae Msh2–Msh6 (WT) mutant Msh6:K988M [S. cerevisiae] / S. cerevisiae Mlh1–Pms1 [S. cerevisiae] chain 4 K988M

Further lines, the substance ahead of its results:

Substance: 236-bp +T mispair DNA
binding signal (% of WT RUmax) [1]: 100

Substance: 236-bp mispaired DNA, double end-blocked
binding signal (Msh2-Msh6 per DNA) [2]: < 0.86
binding signal (Mlh1-Pms1 per Msh2-Msh6) [3]: 1.07
binding signal (Msh2-Msh6 per DNA (maximum)) [4]: 1
binding signal (Msh2-Msh6 per DNA (maximum)) [5]: 1
binding signal (Msh2-Msh6 per DNA (maximum)) [6]: 1

Substance: S. cerevisiae Msh2–Msh6 (WT) mutant Msh6:K988A [S. cerevisiae] / S. cerevisiae Mlh1–Pms1 [S. cerevisiae] chain 4 K988A
screen value [8]: 3.3

Substance: S. cerevisiae Msh2–Msh6 (WT) mutant Msh6:K988R [S. cerevisiae] / S. cerevisiae Mlh1–Pms1 [S. cerevisiae] chain 4 K988R
screen value [8]: 2.4
